Experimental data published in IntAct's records for PubMed 26051712.

B1: Inner nuclear membrane protein HEH2 (Saccharomyces cerevisiae), Q03281 (parent)
chain: MDHRNLDPKTLKVSQLRRVLVENDVAFPANARKPVLVKLFEEKVRQRLQSSPEASKVRTSIQKVVKSGAKNADRKKTLKSKKLESSSSESKTVKDENVETNKRKREQISTDNEAKMQIQEEKSPKKKRKKRSSKANKPPESPPQSKSDGKATSADLTSELETVEELHKKDSSDDKPRVKELPKPELPNLKVSNEFLAQLNKELASAATENYDHSIKSTDLSSIRIETEEPVGPSTGAETRNESEVMENINLEVQPEVKEAKEELTKISETFDNQDEEDTSRLSSKKNIRSPKGRTRHFIANKTKRGIDIMKPFIAHLFIWLWNGAIFLSIICPILFGLWYREQRIQVGYCGHEKPLKSLAISAFPQTERVDSVLQAYRPNCLECPEHGICSSFMNVECEPGYEPKSSILETYGIIPFPKYCAKDESKEKEVDELVWKVNEYLKKKNAQHECGEGENLFESGETETKLYDIFSHSRPSWESQREFNDHWKNVLEILKKKDDIIWLPLDFETNGKREKSKSNNTNYIYRSTSKKWVTLQCHLEGDIQEYITKYGGSLFITLGVLFLIKKIQSTLDNYVQGEQIIEKLVKEAIDKLKDVKKNKGEEPFLTTVQLRATLLSDIPNIKEQNNLWAQTKEKIMKEQSENIELYLLEENGEIMTCWEWKE
B2: Inner nuclear membrane protein SRC1 (Saccharomyces cerevisiae), Q03707 (parent)
chain: MNSDLEYLEDGFDPNSMKVATLRRILVENNVDFPSNARKNALVGLFDEKVKPQIPQLRKMYLNVRPSDEGIVKMDRPSSSPSIASPRRSRRARREKSASPMAKQFKKNRILDDVSNDDDDDDDDDDDNDKKDDPLIVPSGTDTDEVDDEEDDVITSSSNKSDTNDFQQNSDTRKKRKDPDSDDWSESNSKENKIDNKHLNLLSSDSEIEQDYQKAKKRKTSDLNQEHGNGSAILGKLSVKTPIKNTNRKPVSMDNFNDSLTSSGTENDPFVPNIRHNPKELGTANGTGHSTPLSKLKVSASFADKLPQKEVPSTILVPEVEQQEPSQSERTPSLFSSEGSGSESEAPLLPEITTPGPHQPMGNTSNNVVEMIDTDSSNLVSDEDEVLVPTRIETPQLPTEKDVEKCEARVQELQEEVNEQLEHENGSEFDVKQGSGKVGNRHKFKRALKFLSKSLLALFLFCIFIVIPLLFGLWYREQRLLIGYCGHEVPSHRVSGNSFEFIQKLDNLLQDYRPKCIPCPPNGICYPYLKLKCKPDYKLAPSRLDFLEIIPAQGKCVKDDKKQQLVSEVVEKSLEFLRAKNAQISCGDGKDDIESGMTEDALYQIFNEARAPWIRDDEFEDLWIQVIKDLTEEPEILWRQLSPTDNNIGGNSNNIIKTNDVPRQKRHLPEKFISKTRNFRSTSKKYIGMKCRFEREIYQTYKKFQRPIWLMFLLIVISKVIEIKLKNYYRKKARIEELVTQTMEKLKFQKIKSMSDPKENAYLSIVQLRDIFLSDIVDLKYKNQLWSEVVKYLEHNNSNIKSNLTEIRGEIMKCWEWIGPMELNEPKDSAENKI

Variants of: B1
Settings: with ima1_yeast SRP1, Q02821
Chain of ima1_yeast SRP1, Q02821 (Q02821 whole entry): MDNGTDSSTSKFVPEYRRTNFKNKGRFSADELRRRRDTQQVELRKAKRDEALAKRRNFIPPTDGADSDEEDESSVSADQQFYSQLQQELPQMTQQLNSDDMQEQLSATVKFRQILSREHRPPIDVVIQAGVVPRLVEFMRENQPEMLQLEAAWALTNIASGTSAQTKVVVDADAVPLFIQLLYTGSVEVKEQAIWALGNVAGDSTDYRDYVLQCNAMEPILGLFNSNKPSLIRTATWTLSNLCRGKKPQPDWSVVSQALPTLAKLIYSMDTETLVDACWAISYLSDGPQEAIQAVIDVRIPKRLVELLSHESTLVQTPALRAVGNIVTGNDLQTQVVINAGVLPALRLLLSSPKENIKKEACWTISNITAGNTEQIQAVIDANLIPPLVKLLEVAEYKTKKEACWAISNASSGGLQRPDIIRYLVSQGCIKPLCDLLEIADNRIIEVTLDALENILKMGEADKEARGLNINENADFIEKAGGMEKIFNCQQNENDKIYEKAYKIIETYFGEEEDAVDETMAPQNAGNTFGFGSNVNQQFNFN

effect of a mutation on the interaction | Variant
decreasing interaction strength | R103A
decreasing interaction strength | K126A
decreasing interaction strength | R103A;K126A

Variants of: B2
Settings: with ima1_yeast SRP1, Q02821

effect of a mutation on the interaction | Variant
decreasing interaction strength | R176A
decreasing interaction strength | R176A;K190A

Variants of: B2
Settings: with ima1_yeast SRP1, Q02821
Remark: another data set of the same source

effect of a mutation on the interaction | Variant
decreasing interaction strength | K190A
